Laboratory results from US20060110789.

Tests used:
[1] = molecular target: T1, M3+TE (module 3 of DEBS with its own N-terminal linker, fused to thioesterase), Q03132
T1 chain: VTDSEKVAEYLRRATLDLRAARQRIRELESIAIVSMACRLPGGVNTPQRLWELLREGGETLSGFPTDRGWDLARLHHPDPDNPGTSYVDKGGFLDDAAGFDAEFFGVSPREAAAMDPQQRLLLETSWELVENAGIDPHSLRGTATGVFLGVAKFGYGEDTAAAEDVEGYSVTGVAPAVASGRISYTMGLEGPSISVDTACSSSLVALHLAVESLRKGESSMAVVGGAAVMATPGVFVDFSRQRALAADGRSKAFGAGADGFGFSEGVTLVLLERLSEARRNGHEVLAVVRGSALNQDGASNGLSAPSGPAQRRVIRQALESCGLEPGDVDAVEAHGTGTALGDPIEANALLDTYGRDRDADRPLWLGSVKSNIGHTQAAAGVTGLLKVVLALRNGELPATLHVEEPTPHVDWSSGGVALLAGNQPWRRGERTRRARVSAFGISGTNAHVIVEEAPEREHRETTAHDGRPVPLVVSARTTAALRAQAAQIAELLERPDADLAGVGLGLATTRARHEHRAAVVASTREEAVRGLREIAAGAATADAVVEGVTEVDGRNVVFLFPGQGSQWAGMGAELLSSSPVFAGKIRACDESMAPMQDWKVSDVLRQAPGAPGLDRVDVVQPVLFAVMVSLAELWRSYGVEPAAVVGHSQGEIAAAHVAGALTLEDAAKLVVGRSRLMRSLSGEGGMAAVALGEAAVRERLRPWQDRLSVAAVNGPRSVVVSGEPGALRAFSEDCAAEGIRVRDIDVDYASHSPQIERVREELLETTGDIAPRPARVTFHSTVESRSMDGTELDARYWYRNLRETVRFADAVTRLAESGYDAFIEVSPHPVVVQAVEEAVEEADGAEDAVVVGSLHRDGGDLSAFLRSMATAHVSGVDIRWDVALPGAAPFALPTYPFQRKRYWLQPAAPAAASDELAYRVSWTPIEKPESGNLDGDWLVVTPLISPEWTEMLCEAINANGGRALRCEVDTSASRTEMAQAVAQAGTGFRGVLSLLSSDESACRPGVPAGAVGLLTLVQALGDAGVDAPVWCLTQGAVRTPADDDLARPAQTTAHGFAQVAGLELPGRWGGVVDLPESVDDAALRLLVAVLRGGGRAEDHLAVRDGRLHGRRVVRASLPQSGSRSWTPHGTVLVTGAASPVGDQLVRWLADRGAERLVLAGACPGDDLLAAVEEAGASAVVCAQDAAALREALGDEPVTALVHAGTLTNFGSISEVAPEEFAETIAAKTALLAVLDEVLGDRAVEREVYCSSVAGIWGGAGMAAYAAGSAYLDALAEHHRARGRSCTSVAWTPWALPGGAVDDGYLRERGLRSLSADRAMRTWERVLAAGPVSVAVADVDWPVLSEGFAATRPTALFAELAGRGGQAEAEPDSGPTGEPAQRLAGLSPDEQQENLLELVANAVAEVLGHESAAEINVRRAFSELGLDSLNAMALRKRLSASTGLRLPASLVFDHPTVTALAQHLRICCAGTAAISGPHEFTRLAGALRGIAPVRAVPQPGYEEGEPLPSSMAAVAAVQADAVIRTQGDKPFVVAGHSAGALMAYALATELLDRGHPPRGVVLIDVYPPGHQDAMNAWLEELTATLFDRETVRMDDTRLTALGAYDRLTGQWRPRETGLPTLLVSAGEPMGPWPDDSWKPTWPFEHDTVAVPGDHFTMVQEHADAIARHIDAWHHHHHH

[2] = molecular target: T2, (5)M3+TE (module 3 of DEBS with the N-terminal linker of module 5, fused to thioesterase), Q03132
T2 chain: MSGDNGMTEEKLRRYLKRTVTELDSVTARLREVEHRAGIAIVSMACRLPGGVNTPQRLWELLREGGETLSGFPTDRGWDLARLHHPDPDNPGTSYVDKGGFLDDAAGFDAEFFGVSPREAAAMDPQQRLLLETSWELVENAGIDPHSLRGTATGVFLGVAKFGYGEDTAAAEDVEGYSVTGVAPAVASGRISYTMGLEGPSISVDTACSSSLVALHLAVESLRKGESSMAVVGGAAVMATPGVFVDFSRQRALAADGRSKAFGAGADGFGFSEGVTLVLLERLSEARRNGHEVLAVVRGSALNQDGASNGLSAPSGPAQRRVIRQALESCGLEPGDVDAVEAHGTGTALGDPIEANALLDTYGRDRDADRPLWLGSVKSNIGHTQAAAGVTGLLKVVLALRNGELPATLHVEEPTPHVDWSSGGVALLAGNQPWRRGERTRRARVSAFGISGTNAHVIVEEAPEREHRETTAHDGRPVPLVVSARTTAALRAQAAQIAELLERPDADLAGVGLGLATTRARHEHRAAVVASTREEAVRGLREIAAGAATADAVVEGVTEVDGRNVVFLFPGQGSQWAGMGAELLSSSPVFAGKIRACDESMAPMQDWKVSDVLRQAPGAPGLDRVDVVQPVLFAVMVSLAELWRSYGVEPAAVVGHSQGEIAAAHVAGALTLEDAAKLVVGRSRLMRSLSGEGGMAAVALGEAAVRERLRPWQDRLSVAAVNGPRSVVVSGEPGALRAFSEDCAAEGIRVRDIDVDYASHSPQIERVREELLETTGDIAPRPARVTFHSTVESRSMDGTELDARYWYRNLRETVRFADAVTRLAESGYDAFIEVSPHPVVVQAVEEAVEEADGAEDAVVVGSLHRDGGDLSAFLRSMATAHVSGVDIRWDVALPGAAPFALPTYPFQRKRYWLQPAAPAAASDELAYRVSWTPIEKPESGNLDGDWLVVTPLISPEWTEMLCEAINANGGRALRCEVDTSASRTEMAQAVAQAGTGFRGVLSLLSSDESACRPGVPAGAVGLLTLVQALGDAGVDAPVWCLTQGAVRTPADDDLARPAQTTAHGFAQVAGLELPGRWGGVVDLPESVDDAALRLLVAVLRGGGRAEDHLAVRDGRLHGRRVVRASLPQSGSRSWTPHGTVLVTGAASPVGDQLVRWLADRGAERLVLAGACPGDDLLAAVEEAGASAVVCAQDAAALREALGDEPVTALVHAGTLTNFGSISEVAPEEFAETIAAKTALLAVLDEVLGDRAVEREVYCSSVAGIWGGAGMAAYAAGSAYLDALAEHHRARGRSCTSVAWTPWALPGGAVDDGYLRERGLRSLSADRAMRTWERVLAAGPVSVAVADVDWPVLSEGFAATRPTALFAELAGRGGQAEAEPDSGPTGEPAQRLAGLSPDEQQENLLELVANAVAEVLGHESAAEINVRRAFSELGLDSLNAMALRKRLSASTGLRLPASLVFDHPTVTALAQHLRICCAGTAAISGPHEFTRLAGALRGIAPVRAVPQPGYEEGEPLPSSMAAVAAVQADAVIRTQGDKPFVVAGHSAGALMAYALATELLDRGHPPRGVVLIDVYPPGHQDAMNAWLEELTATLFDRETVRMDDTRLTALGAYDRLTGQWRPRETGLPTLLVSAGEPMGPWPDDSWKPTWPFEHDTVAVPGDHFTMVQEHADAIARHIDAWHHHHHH

B1: M2 (module 2 of DEBS with its natural C-terminal linker) (protein)
chain: MSGDNGMTEEKLRRYLKRTVTELDSVTARLREVEHRAGIAIVGMACRLPGEVDSPERLWELITSGRDSAAEVPDDRGWVPDELMASDAAGTRAHGNFMAGAGDFDAAFFGISPREALAMDPQQRQALETTWEALESAGIPPETLRGSDTGVFVGMSHQGYATGRPRPEDGVDGYLLTGNTASVASGRIAYVLGLEGPALTVDTACSSSLVALHTACGSLRDGDCGLAVAGGVSVMAGPEVFTEFSRQGALSPDGRCKPFSDEADGFGLGEGSAFVVLQRLSDARREGRRVLGVVAGSAVNQDGASNGLSAPSGVAQQRVIRRAWARAGITGADVAVVEAHGTGTRLGDPVEASALLATYGKSRGSSGPVLLGSVKSNIGHAQAAAGVAGVIKVLLGLERGVVPPMLCRGERSGLIDWSSGEIELADGVREWSPAADGVRRAGVSAFGVSGTNAHVIIAEPPEPEPVPQPRRMLPATGVVPVVLSARTGAALRAQAGRLADHLAAHPGIAPADVSWTMARARQHFEERAAVLAADTAEAVHRLRAVADGAVVPGVVTGSASDGGSVFVFPGQGAQWEGMARELLPVPVFAESIAECDAVLSEVAGFSVSEVLEPRPDAPSLERVDVVQPVLFAVMVSLARLWRACGAVPSAVIGHSQGEIAAAVVAGALSLEDGMRVVARRSRAVRAVAGRGSMLSVRGGRSDVEKLLADDSWTGRLEVAAVNGPDAVVVAGDAQAAREFLEYCEGVGIRARAIPVDYASHTAHVEPVRDELVQALAGITPRRAEVPFFSTLTGDFLDGTELDAGYWYRNLRHPVEFHSAVQALTDQGYATFIEVSPHPVLASSVQETLDDAESDAAVLGTLERDAGDADRFLTALADAHTRGVAVDWEAVLGRAGLVDLPGYPFQGKRFWLLPDRTTPRDELDGWFYRVDWTEVPRSEPAALRGRWLVVVPEGHEEDGWTVEVRSALAEAGAEPEVTRGVGGLVGDCAGVVSLLALEGDGAVQTLVLVRELDAEGIDAPLWTVTFGAVDAGSPVARPDQAKLWGLGQVASLERGPRWTGLVDLPHMPDPELRGRLTAVLAGSEDQVAVRADAVRARRLSPAHVTATSEYAVPGGTILVTGGTAGLGAEVARWLAGRGAEHLALVSRRGPDTEGVGDLTAELTRLGARVSVHACDVSSREPVRELVHGLIEQGDVVRGVVHAAGLPQQVAINDMDEAAFDEVVAAKAGGAVHLDELCSDAELFLLFSSGAGVWGSARQGAYAAGNAFLDAFARHRRGRGLPATSVAWGLWAAGGMTGDEEAVSFLRERGVRAMPVPRALAALDRVLASGETAVVVTDVDWPAFAESYTAARPRPLLDRIVTTAPSERAGEPETESLRDRLAGLPRAERTAELVRLVRTSTATVLGHDDPKAVRATTPFKELGFDSLAAVRLRNLLNAATGLRLPSTLVFDHPNASAVAGFLDGTEVRGEAPSALAGLDALEGALPEVPATEREELVQRLERMLAALRPVAQAADASGTGANPSGDDLGEAGVDELLEALGRELDGD
[1]
  maximum rate constant (kcat) of tetraketide lactone 2 formation: 0.27 ± 0.01 min⁻¹
[2]
  highest rate constant of tetraketide lactone 2 formation (mismatched linkers): in the range of 0.02-0.03 min^-1
